From the supplement of paper PMC5998384 come the findings set out here.

Data set [1] deals with HeLa Kyoto. Nature of the data set: solubility in G1/S (NP-40 vs SDS abundance) (log2 ratio); higher = more soluble. As to conditions: cell cycle stage: G1/S.
In data set [2] the test system is HeLa Kyoto. The data set can be described thus: melting temperature (median over replicates), in situ; higher = more thermally stable.
Data set [3] relates to HeLa Kyoto. The data set can be described thus: solubility change mitosis vs G1/S (difference of NP-40 vs SDS log2 ratios) (log2 ratio difference); higher = more soluble in mitosis.
The test system of data set [4] is HeLa Kyoto. Nature of the data set: thermal stability score vs G1/S (z-score of summed log2 fold changes over temperatures); higher = more thermally stable than in G1/S.
[5] abbreviates: cell cycle stage: early G1 (4.5 h after nocodazole release).
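For melting temperature (median over replicates), in situ in this document: HeLa Kyoto cells synchronized by double thymidine or nocodazole block, proteins quantified by TMT10plex mass spectrometry, three independent biological replicates.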
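For solubility change mitosis vs G1/S (difference of NP-40 vs SDS log2 ratios) in this document: synchronized HeLa Kyoto cells (double thymidine block for G1/S, nocodazole release for mitosis), protein amounts in NP-40 versus SDS lysates quantified by mass spectrometry, three biological replicates.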
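For solubility in G1/S (NP-40 vs SDS abundance) in this document: HeLa Kyoto cells arrested at G1/S by double thymidine block, proteins quantified by TMT10plex mass spectrometry in mild NP-40 versus SDS extracts, three biological replicates.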
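For thermal stability score vs G1/S (z-score of summed log2 fold changes over temperatures) in this document: synchronized HeLa Kyoto cells, proteins quantified by TMT10plex mass spectrometry, three biological replicates, mitosis taken 0.5 h after nocodazole release, G1/S directly after double thymidine block.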

For the sequence “MEDSEALGFEHMGLDPRLLQAVTDLGWSRPTLIQEKAIPLALEGKDLLARARTGSGKTAAYAIPMLQLLLHRKATGPVVEQAVRGLVLVPTKELARQAQSMIQQLATYCARDVRVANVSAAEDSVSQRAVLMEKPDVVVGTPSRILSHLQQDSLKLRDSLELLVVDEADLLFSFGFEEELKSLLCHLPRIYQAFLMSATFNEDVQALKELILHNPVTLKLQESQLPGPDQLQQFQVVCETEEDKFLLLYALLKLSLIRGKSLLFVNTLERSYRLRLFLEQFSIPTCVLNGELPLRSRCHIISQFNQGFYDCVIATDAEVLGAPVKGKRRGRGPKGDKASDPEAGVARGIDFHHVSAVLNFDLPPTPEAYIHRAGRTARANNPGIVLTFVLPTEQFHLGKIEELLSGENRGPILLPYQFRMEEIEGFRYRCRDAMRSVTKQAIREARLKEIKEELLHSEKLKTYFEDNPRDLQLLRHDLPLHPAVVKPHLGHVPDYLVPPALRGLVRPHKKRKKLSSSCRKAKRAKSQNPLRSFKHKGKKFRPTAKPS [DDX56]”, the “solubility in G1/S (log2)” value in the data set on HeLa Kyoto [1] was -1.13. Moreover, the results for the melting temperature with HeLa Kyoto [2] (cell cycle stage: G1/S) and with HeLa Kyoto [2] (cell cycle stage: mitosis) were 51.8 °C and 52 °C, respectively. The “solubility change mitosis (log2)” value in the data set on HeLa Kyoto [3] was determined as 0.785. In addition, the results for the thermal stability score with HeLa Kyoto [4] (setting [5]) and in the data set with HeLa Kyoto [4] (cell cycle stage: mitosis) were 0.609 and 0.497, respectively.
As for “MEDVEARFAHLLQPIRDLTKNWEVDVAAQLGEYLEELDQICISFDEGKTTMNFIEAALLIQGSACVYSKKVEYLYSLVYQALDFISGKRRAKQLSSVQEDRANGVASSGVPQEAENEFLSLDDFPDSRTNVDLKNDQTPSEVLIIPLLPMALVAPDEMEKNNNPLYSRQGEVLASRKDFRMNTCVPHPRGAFMLEPEGMSPMEPAGVSPMPGTQKDTGRTEEQPMEVSVCRSPVPALGFSQEPGPSPEGPMPLGGGEDEDAEEAVELPEASAPKAALEPKESRSPQQSAALPRRYMLREREGAPEPASCVKETPDPWQSLDPFDSLESKPFKKGRPYSVPPCVEEALGQKRKRKGAAKLQDFHQWYLAAYADHADSRRLRRKGPSFADMEVLYWTHVKEQLETLRKLQRREVAEQWLRPAEEDHLEDSLEDLGAADDFLEPEEYMEPEGADPREAADLDAVPMSLSYEELVRRNVELFIATSQKFVQETELSQRIRDWEDTVQPLLQEQEQHVPFDIHTYGDQLVSRFPQLNEWCPFAELVAGQPAFEVCRSMLASLQLANDYTVEITQQPGLEMAVDTMSLRLLTHQRAHKRFQTYAAPSMAQP [NCAPH2]”, in the data set on HeLa Kyoto [1], the “solubility in G1/S (log2)” value amounted to 0.197. The melting temperature with HeLa Kyoto [2] (cell cycle stage: G1/S) was determined as 48.5 °C; in the data set with HeLa Kyoto [2] (cell cycle stage: mitosis), 48.6 °C. The “solubility change mitosis (log2)” value with HeLa Kyoto [3] came to 0.0239. For the same sequence, the thermal stability score with HeLa Kyoto [4] (setting [5]) is -0.208; in the data set on HeLa Kyoto [4] (cell cycle stage: mitosis), -0.203.
As for “MEEDTDYRIRFSSLCFFNDHVGFHGTIKSSPSDFIVIEIDEQGQLVNKTIDEPIFKISEIQLEPNNFPKKPKLDLQNLSLEDGRNQEVHTLIKYTDGDQNHQSGSEKEDTIVDGTSKCEEKADVLSSFLDEKTHELLNNFACDVREKWLSKTELIGLPPEFSIGRILDKNQRASLHSAIRQKFPFLVTVGKNSEIVVKPNLEYKELCHLVSEEEAFDFFKYLDAKKENSKFTFKPDTNKDHRKAVHHFVNKKFGNLVETKSFSKMNCSAGNPNVVVTVRFREKAHKRGKRPLSECQEGKVIYTAFTLRKENLEMFEAIGFLAIKLGVIPSDFSYAGLKDKKAITYQAMVVRKVTPERLKNIEKEIEKKRMNVFNIRSVDDSLRLGQLKGNHFDIVIRNLKKQINDSANLRERIMEAIENVKKKGFVNYYGPQRFGKGRKVHTDQIGLALLKNEMMKAIKLFLTPEDLDDPVNRAKKYFLQTEDAKGTLSLMPEFKVRERALLEALHRFGMTEEGCIQAWFSLPHSMRIFYVHAYTSKIWNEAVSYRLETYGARVVQGDLVCLDEDIDDENFPNSKIHLVTEEEGSANMYAIHQVVLPVLGYNIQYPKNKVGQWYHDILSRDGLQTCRFKVPTLKLNIPGCYRQILKHPCNLSYQLMEDHDIDVKTKGSHIDETALSLLISFDLDASCYATVCLKEIMKHDV [PUS7L]”, in the data set with HeLa Kyoto [1], the “solubility in G1/S (log2)” value is -0.0836. The results for the melting temperature with HeLa Kyoto [2] (cell cycle stage: G1/S) and in the data set on HeLa Kyoto [2] (cell cycle stage: mitosis) were 51 °C and 51.9 °C, respectively. The “solubility change mitosis (log2)” value in the data set on HeLa Kyoto [3] is -0.137. The thermal stability score in the data set with HeLa Kyoto [4] (setting [5]) came out at 0.23; in the data set on HeLa Kyoto [4] (cell cycle stage: mitosis) it was 0.98.
For “MEEGGNLGGLIKMVHLLVLSGAWGMQMWVTFVSGFLLFRSLPRHTFGLVQSKLFPFYFHISMGCAFINLCILASQHAWAQLTFWEASQLYLLFLSLTLATVNARWLEPRTTAAMWALQTVEKERGLGGEVPGSHQGPDPYRQLREKDPKYSALRQNFFRYHGLSSLCNLGCVLSNGLCLAGLALEIRSL [TMEM205]”, the “solubility in G1/S (log2)” value in the data set on HeLa Kyoto [1] amounted to 0.0662. The melting temperature in the data set on HeLa Kyoto [2] (cell cycle stage: mitosis) is 55.9 °C. Further, the “solubility change mitosis (log2)” value in the data set on HeLa Kyoto [3] is -0.294. Moreover, the thermal stability score in the data set with HeLa Kyoto [4] (setting [5]) is -2.96; in the data set on HeLa Kyoto [4] (cell cycle stage: mitosis) it was -1.84.
Take “MEEGHGLDLTYITERIIAVSFPAGCSEESYLHNLQEVTRMLKSKHGDNYLVLNLSEKRYDLTKLNPKIMDVGWPELHAPPLDKMCTICKAQESWLNSNLQHVVVIHCRGGKGRIGVVISSYMHFTNVSASADQALDRFAMKKFYDDKVSALMQPSQKRYVQFLSGLLSGSVKMNASPLFLHFVILHGTPNFDTGGVCRPFLKLYQAMQPVYTSGIYNVGPENPSRICIVIEPAQLLKGDVMVKCYHKKYRSATRDVIFRLQFHTGAVQGYGLVFGKEDLDNASKDDRFPDYGKVELVFSATPEKIQGSEHLYNDHGVIVDYNTTDPLIRWDSYENLSADGEVLHTQGPVDGSLYAKVRKKSSSDPGIPGGPQAIPATNSPDHSDHTLSVSSDSGHSTASARTDKTEERLAPGTRRGLSAQEKAELDQLLSGFGLEDPGSSLKEMTDARSKYSGTRHVVPAQVHVNGDAALKDRETDILDDEMPHHDLHSVDSLGTLSSSEGPQSAHLGPFTCHKSSQNSLLSDGFGSNVGEDPQGTLVPDLGLGMDGPYERERTFGSREPKQPQPLLRKPSVSAQMQAYGQSSYSTQTWVRQQQMVVAHQYSFAPDGEARLVSRCPADNPGLVQAQPRVPLTPTRGTSSRVAVQRGVGSGPHPPDTQQPSPSKAFKPRFPGDQVVNGAGPELSTGPSPGSPTLDIDQSIEQLNRLILELDPTFEPIPTHMNALGSQANGSVSPDSVGGGLRASSRLPDTGEGPSRATGRQGSSAEQPLGGRLRKLSLGQYDNDAGGQLPFSKCAWGKAGVDYAPNLPPFPSPADVKETMTPGYPQDLDIIDGRILSSKESMCSTPAFPVSPETPYVKTALRHPPFSPPEPPLSSPASQHKGGREPRSCPETLTHAVGMSESPIGPKSTMLRADASSTPSFQQAFASSCTISSNGPGQRRESSSSAERQWVESSPKPMVSLLGSGRPTGSPLSAEFSGTRKDSPVLSCFPPSELQAPFHSHELSLAEPPDSLAPPSSQAFLGFGTAPVGSGLPPEEDLGALLANSHGASPTPSIPLTATGAADNGFLSHNFLTVAPGHSSHHSPGLQGQGVTLPGQPPLPEKKRASEGDRSLGSVSPSSSGFSSPHSGSTISIPFPNVLPDFSKASEAASPLPDSPGDKLVIVKFVQDTSKFWYKADISREQAIAMLKDKEPGSFIVRDSHSFRGAYGLAMKVATPPPSVLQLNKKAGDLANELVRHFLIECTPKGVRLKGCSNEPYFGSLTALVCQHSITPLALPCKLLIPERDPLEEIAESSPQTAANSAAELLKQGAACNVWYLNSVEMESLTGHQAIQKALSITLVQEPPPVSTVVHFKVSAQGITLTDNQRKLFFRRHYPVNSVIFCALDPQDRKWIKDGPSSKVFGFVARKQGSATDNVCHLFAEHDPEQPASAIVNFVSKVMIGSPKKV [TNS3]”: the “solubility in G1/S (log2)” value in the data set on HeLa Kyoto [1] was 0.127. The melting temperature with HeLa Kyoto [2] (cell cycle stage: G1/S) turned out to be 48 °C; in the data set on HeLa Kyoto [2] (cell cycle stage: mitosis), 49.8 °C. Further, the “solubility change mitosis (log2)” value with HeLa Kyoto [3] is -0.126. Also, the thermal stability score in the data set on HeLa Kyoto [4] (setting [5]) came out at 1.68; in the data set with HeLa Kyoto [4] (cell cycle stage: mitosis), 3.85.
Take “MEEKLKKTKIIFVVGGPGSGKGTQCEKIVQKYGYTHLSTGDLLRSEVSSGSARGKKLSEIMEKGQLVPLETVLDMLRDAMVAKVNTSKGFLIDGYPREVQQGEEFERRIGQPTLLLYVDAGPETMTQRLLKRGETSGRVDDNEETIKKRLETYYKATEPVIAFYEKRGIVRKVNAEGSVDSVFSQVCTHLDALK [AK1]”: the “solubility in G1/S (log2)” value with HeLa Kyoto [1] stood at 0.524. The melting temperature in the data set on HeLa Kyoto [2] (cell cycle stage: G1/S) stood at 50.4 °C; with HeLa Kyoto [2] (cell cycle stage: mitosis) it was 51 °C. The “solubility change mitosis (log2)” value in the data set with HeLa Kyoto [3] was -0.0547. Also, the figures for the thermal stability score with HeLa Kyoto [4] (setting [5]) and in the data set with HeLa Kyoto [4] (cell cycle stage: mitosis) were 1.73 and 1.88, respectively.
Take “MEETMKLATMEDTVEYCLFLIPDESRDSDKHKEILQKYIERIITRFAPMLVPYIWQNQPFNLKYKPGKGGVPAHMFGVTKFGDNIEDEWFIVYVIKQITKEFPELVARIEDNDGEFLLIEAADFLPKWLDPENSTNRVFFCHGELCIIPAPRKSGAESWLPTTPPTIPQALNIITAHSEKILASESIRAAVNRRIRGYPEKIQASLHRAHCFLPAGIVAVLKQRPRLVAAAVQAFYLRDPIDLRACRVFKTFLPETRIMTSVTFTKCLYAQLVQQRFVPDRRSGYRLPPPSDPQYRAHELGMKLAHGFEILCSKCSPHFSDCKKSLVTASPLWASFLESLKKNDYFKGLIEGSAQYRERLEMAENYFQLSVDWPESSLAMSPGEEILTLLQTIPFDIEDLKKEAANLPPEDDDQWLDLSPDQLDQLLQEAVGKKESESVSKEEKEQNYDLTEVSESMKAFISKVSTHKGAELPREPSEAPITFDADSFLNYFDKILGPRPNESDSDDLDDEDFECLDSDDDLDFETHEPGEEASLKGTLDNLKSYMAQMDQELAHTCISKSFTTRNQVEPVSQTTDNNSDEEDSGTGESVMAPVDVDLNLVSNILESYSSQAGLAGPASNLLQSMGVQLPDNTDHRPTSKPTKN [ECD]”: in the data set with HeLa Kyoto [1], the “solubility in G1/S (log2)” value was determined as 0.116. Moreover, the results for the melting temperature with HeLa Kyoto [2] (cell cycle stage: G1/S) and in the data set with HeLa Kyoto [2] (cell cycle stage: mitosis) were 50.8 °C and 50 °C, respectively. Moreover, in the data set with HeLa Kyoto [3], the “solubility change mitosis (log2)” value was -0.113. The figures for the thermal stability score with HeLa Kyoto [4] (setting [5]) and with HeLa Kyoto [4] (cell cycle stage: mitosis) were 0.346 and 0.595, respectively.
